Source: article PMC2886305 (Molecular cell, 2010)
One block for each molecule: values may come before it. Where no end group is shown, it is not given here.

How the values were obtained:
[1] = tested on: CBX7 chromodomain (CBX7CD); experiment: fluorescence anisotropy; settings: not given in material (buffer, salt, pH and temperature in supplement)
[2] = tested on: CBX7 at INK4b/ARF/INK4a locus, PC3 cells; experiment: ChIP of CBX7 occupation in PC3 cells treated with α-amanitin; format: cell-based, human; settings: whole PC3 cell treatment, 10 μg/ml, relative to histone H3
[3] = tested on: RNA Pol II (ANRIL transcription), PC3 nuclei; experiment: In vitro transcription of ANRIL from PC3 whole nuclei; format: cell-based, human; settings: [α-32P]-UTP incorporation
[4] = molecular target: H3K9me3 peptide of the fluorescence anisotropy assay; experiment: fluorescence polarisation
CBX7CD = molecular target: T1, CBX7CD (Mus musculus, UniProt Q8VDS3); format: binding; settings: fluorescence anisotropy, fluorescein-labeled peptide; measured in triplicate
T1 sequence (Q8VDS3 11-69 limits assumed): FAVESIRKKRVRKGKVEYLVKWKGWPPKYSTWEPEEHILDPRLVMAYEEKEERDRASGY

[5] = tested on: INK4b/ARF/INK4a locus, PC3 cell nuclei; experiment: Quantitative ChIP of PC3 nuclei after RNase A; format: cell-based, human
CBX7 chromodomain = molecular target: T2, CBX7 chromodomain ( (human or mouse cDNA cloned), UniProt Q8VDS3 1-71); experiment: fluorescence polarisation
T2 sequence: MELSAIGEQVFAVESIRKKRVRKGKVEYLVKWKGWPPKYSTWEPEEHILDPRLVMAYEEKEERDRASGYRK

[6] = RNase A treatment of PC3 cell nuclei

Molecule: ANRIL loop A RNA
Kd [1]: 13.7 µM

Molecule: ANRIL loop C RNA
Kd [1]: 14.6 µM

Molecule: α-amanitin
CBX7 levels (ChIP) [2]: depleted levels of CBX7 | sensitivity of nascent ANRIL transcription [3]: shows sensitivity to α-amanitin

Kd [4]: 16.5 µM
Molecule: CBX7 chromodomain (from UniProt Q8VDS3 1-71) (domain or fragment)

Kd (CBX7CD): 16.5 ± 0.8 µM
Molecule: H3K9me3: H3K9me3 peptide (histone H3 methylated at lysine 9)

Molecule: ANRIL loop B RNA
Kd [1]: 30.2 µM

B1: RNase A: ribonuclease A (protein, UniProt P61823 27-150, looked up)
Ribonuclease pancreatic: KETAAAKFERQHMDSSTSAASSSNYCNQMMKSRNLTKDRCKPVNTFVHESLADVQAVCSQKNVACKNGQTNCYQSYSTMSITDCRETGSSKYPNCAYKTTQANKHIIVACEGNPYVPVHFDASV
site occupation by CBX7, PHC2, Bmi1 and Suz12 [5, 6]: dramatically reduced | total levels of H1 and H3 [5, 6]: remained about the same | levels of trimethylated H3K27 and ubiquitinated H2AK119 ([5]; RNase A treatment, at CBX7 occupation sites): greatly reduced

Kd (CBX7 chromodomain): 59 ± 4.7 µM
Molecule: APRKQLATKAARK(Me3)SAP (also: fluorescein label (position not given here)) [fluorescein-labeled H3K27me3 peptide]
